Assay results taken from the RNAGym collection of RNA variant scans (doi:10.1073/pnas.2313332121).

B1: TPR t1 (parent)
chain: GACCAAUCUGCCCUCAGAGCUCGAGAACAUCUUCGGAUGCAGAGGAGGCAGGCUUCGGUGGCGCGAUAGCGCCAACGUCCUCAACCUCCAAUGCAUCCCACCACAUGAUGAUGCCUGAAGAGCCUUGGUUUUUUG

Variants of: B1
Test: polymerase ribozyme fitness, log enrichment relative to wild type (log ratio); higher = more active; in vitro selection for triplet polymerase activity
In short: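 Fitness is a logarithmic measure of how a genotype enriched relative to the wild type, with replicate averages weighted by inverse variance. The logarithm uses base 2, and enrichment came from Illumina sequencing of input and output libraries. Those libraries were PCR-built, transcribed mutants of each subunit of a heterodimeric triplet polymerase ribozyme, passed through one triplicate in vitro selection round that included frozen incubation at −7 °C, gel excision of extended constructs and streptavidin-bead capture. Genotypes were kept only if they had ≥10 input reads and ≥1 read per output.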

In order of rising “polymerase ribozyme fitness (log ratio)” value:
1. C11A A37U G51U C56U A68U C98A U109A  -8.64
2. A27U C49G G51A C80A C99U G120C U130A  -8.17
3. C64A G120C U125G  -7.86
4. C11A G61A C62A C80U G113C  -7.76
5. G25C G48U C72G C86G A100U C102A G117U A119G  -7.7
6. A16G C40U A50U U55G C70U C79U U92C U112A  -7.45
7. C8A A41C G44U C62U C99U A111U G127A  -7.45
8. G65C C85U A108U C123G  -7.43
9. C8A C56U G69C U112A G120A  -7.42
10. C12A A18G C82A C101A U130G  -7.19
11. C22G G52A G63U U81G G110A  -7.15
12. C22A U33C C49U C79A C123G  -7.05
13. G10A C13A A18G  -6.95
14. C62U G69A C97G G110C  -6.75
15. A24C U38G C89U G113U  -6.49
16. C11U A43U G61U G63C C72G C88A C89U A111U  -6.46
17. C20U C64A C98A G117U  -6.4
18. C12G C64G C123G  -6.23
19. C85U C86A C94G G117C  -6.16
20. G52C U67A C70A G117C  -6.05
21. A46U G71A C85G G122A  -5.93
22. U9C G35U C101A  -5.93
23. C8G G39A C73A C97A  -5.92
24. A5C G17A G36U  -5.9
25. G61C U87A G110C  -5.84
26. C53G G57A G71A C94G C114A  -5.83
27. G39U A41G G44U C56G A105C A111U  -5.8
28. C72G U106G G110U A121U U126A G127A  -5.78
29. A18U C88U A111U G127A  -5.73
30. C28U A84G A90C G113C  -5.73
31. G61C U78G A111U U131A  -5.71
32. G17U G71A A84U U96G G128U U130C  -5.57
33. G51U C53A G60A  -5.54
34. G39A G47U G48A C70U C101A  -5.46
35. C34A G110A  -5.44
36. C8A U30A A46C U106C C123U  -5.15
37. C13A A26G C53U C104U  -5.09
38. G60A C115A G117A  -4.99
39. C8U C64A U112A  -4.99
40. C4U G17U G60U C89A  -4.98
41. C4G G44U U78G U96G U106C  -4.97
42. C11G U55A U59G U106G G117C  -4.89
43. G71A C94U C102A U112G G120A  -4.87
44. C73G A108C A118U C123G  -4.86
45. U59G G71U G120C U130A  -4.75
46. C22U C82A C101A  -4.64
47. C12U G60A G69A  -4.56
48. G10A U38G G48C C79A  -4.53
49. U7A G39A A50U C53G U130C  -4.47
50. A2G C102A C114U  -4.44
51. C15U A43C G69A  -4.44
52. G10A G51A C70U A119G  -4.32
53. U14A A46U G61A A84U C85U  -4.32
54. U14A G61A A90C A91C  -4.3
55. G19U C76U  -4.25
56. U59C A66U C102U C124U  -4.09
57. C49U C86U C88G C115G  -4.09
58. U9A G107A  -4.08
59. U7A G39C A74G G107U G120U U130C  -4.02
60. U32C G48U C56A G71U  -3.98
61. C15U C49A C62U U116A A121C U131G  -3.93
62. C3G U7G G17C  -3.73
63. C13A G42U C72G  -3.63
64. U14G A50C G63C C94A  -3.63
65. G63A C79U A91U  -3.61
66. C8U G39C G63A U92G  -3.5
67. U9G G36A U87C C99U  -3.41
68. C4A G17U C73U  -3.37
69. C40U G48U C62G  -3.32
70. C15U U78A C86G  -3.29
71. C12A C22G G36U U116C G120U  -3.27
72. C4U C15U A18G G113A  -3.08
73. G93U C114A  -3.05
74. G60U A111U  -2.87
75. C56A C80G  -2.82
76. G113U G122C  -2.73
77. G61U U78A G128C  -2.72
78. G19C C94A U130C  -2.66
79. G63U A83G C85A U129A  -2.64
80. U38A C53G C56U G110A  -2.64
81. G69A G77A  -2.61
82. C72U U92G  -2.59
83. C15U A41G G52U C62U A119U  -2.59
84. U21G A95C  -2.54
85. C13G G127U  -2.53
86. U7G C73G C89A C104U A119U  -2.52
87. A5U U92G C104U  -2.44
88. C13A C40U C72U  -2.43
89. C62A C73A  -2.4
90. G17U C72G  -2.35
91. C4U C40U C62A  -2.28
92. U9C C72A C76U G77U  -2.24
93. C13G C53A C82A  -2.24
94. C12G G48C A91C  -2.22
95. G63U G120A U129G  -2.16
96. A5U G63A U125A  -2.08
97. C20U C72A A83G G113U  -2.08
98. C64U A95G C115G  -2.07
99. C15A A43G U96C U112C  -2.05
100. A29G U59G G60U U130G  -2.01
101. A2C C4A U7C G44A C56G C94U  -1.93
102. A18U C114A U125A U133G  -1.87
103. U78C C80A U116G G120C C123A  -1.86
104. G47U C79U  -1.85
105. C72U G127U  -1.84
106. C11U G135U  -1.81
107. A37G U55G C88U A105C G120C U125C  -1.81
108. A5U C28U C72A U78C  -1.78
109. G69A C115A  -1.77
110. G47U G58C G63U  -1.75
111. G69C C79U G117U U134G  -1.73
112. C97U C101A G122C C123A U125A  -1.66
113. C53A C86U G128U  -1.61
114. C28U A83U C86G C123G  -1.55
115. A26G G61U  -1.54
116. C56G A66U C88U C115A  -1.49
117. A2U C73A U78A U87C C124A U126A  -1.46
118. G39U G44A  -1.38
119. A41C C73G  -1.33
120. C12A G135U  -1.23
121. G39U A50C  -1.21
122. C11A C12A  -1.15
123. U78C A91G  -1.15
124. A5C C53G C64U C94U  -1.07
125. A41G U55A G58C G120U  -0.997
126. G45A U131G  -0.996
127. C73A C82G G117U U130C  -0.953
128. U9G C115U  -0.945
129. G48C G71C  -0.845
130. C72G U78C C82U C94A  -0.768
131. A37U C70U C79U  -0.766
132. C72G C88U  -0.692
133. C80U U131G  -0.642
134. A6C G63A  -0.611
135. C11U G17A A46G G57C C72U C115A G120C U134A  -0.588
136. C12A A43C G61U C123G  -0.577
137. G44A C56U C123U G135U  -0.56
138. G42U C53U U59G C89A C124A  -0.557
139. C8G C85U C86G  -0.513
140. C73A A119U U132C  -0.485
141. G45A C104U  -0.463
142. C56U U81G U112G C124G  -0.448
143. C53A G120U G127A  -0.445
144. G10U G77A C79U C94U  -0.432
145. G69U C79A C88G  -0.43
146. G57U C72U  -0.387
147. A46C C56U C72U U78A A90G C94U A111C  -0.367
148. A100C U130C  -0.362
149. G52C U55C  -0.101
150. A37U G69U  -0.0814
151. G47A A50U C73U C124U U132A  -0.0565
152. C89U C104U  0.00386
153. G69U A84C  0.129
154. C3U U130C  0.391
155. U9G C101U  0.459
156. C56U U87C  0.555
157. C12U G113A  0.642
158. C53A C124G  0.737
159. G39A A46U U87A U106A  0.825
160. G17A A37U C115U  0.842
161. U9A G117A  1.04
162. G10C C49G G61A U112A A118U  1.17
163. G10U C13U U38G C123A  1.31
164. C11A C79U G120A  1.38
165. G93C G120A  1.58
166. A90G A121C  1.62
167. U55A U112A  1.77
